Source: patent US20250043017A1 (Regeneron, published 2025)

B1: REGN6189 (bispecific antibody, human IgG4 S228P, kappa)
heavy 1: EVQLVESGGGLVQPGRSLRLSCAASGFTFDDYALHWVRQAPGKGLEWVSGISWTGGTIDYADSVKGRFTISRDNAKNSLYLQMSSLRTEDTAIYYCTRDIRGNWKYGGWFDPWGQGTLVTVSSASTKGPSVFPLAPCSRSTSESTAALGCLVKDYFPEPVTVSWNSGALTSGVHTFPAVLQSSGLYSLSSVVTVPSSSLGTKTYTCNVDHKPSNTKVDKRVESKYGPPCPPCPAPPVAGPSVFLFPPKPKDTLMISRTPEVTCVVVDVSQEDPEVQFNWYVDGVEVHNAKTKPREEQFNSTYRVVSVLTVLHQDWLNGKEYKCKVSNKGLPSSIEKTISKAKGQPREPQVYTLPPSQEEMTKNQVSLTCLVKGFYPSDIAVEWESNGQPENNYKTTPPVLDSDGSFFLYSRLTVDKSRWQEGNVFSCSVMHEALHNHYTQKSLSLSLGK
heavy 2: QVQLVESGGDVVQPGRSLRLSCTASGFTFSSFGMHWVRQAPGKGLEWVTFLSYDGSYKYYADSVKGRFTISRDNSKNTLYLQMNSLRAEDTAIFYCARDWLDYWGQGTLVTVSSASTKGPSVFPLAPCSRSTSESTAALGCLVKDYFPEPVTVSWNSGALTSGVHTFPAVLQSSGLYSLSSVVTVPSSSLGTKTYTCNVDHKPSNTKVDKRVESKYGPPCPPCPAPPVAGPSVFLFPPKPKDTLMISRTPEVTCVVVDVSQEDPEVQFNWYVDGVEVHNAKTKPREEQFNSTYRVVSVLTVLHQDWLNGKEYKCKVSNKGLPSSIEKTISKAKGQPREPQVYTLPPSQEEMTKNQVSLTCLVKGFYPSDIAVEWESNGQPENNYKTTPPVLDSDGSFFLYSRLTVDKSRWQEGNVFSCSVMHEALHNRFTQKSLSLSPGK
light: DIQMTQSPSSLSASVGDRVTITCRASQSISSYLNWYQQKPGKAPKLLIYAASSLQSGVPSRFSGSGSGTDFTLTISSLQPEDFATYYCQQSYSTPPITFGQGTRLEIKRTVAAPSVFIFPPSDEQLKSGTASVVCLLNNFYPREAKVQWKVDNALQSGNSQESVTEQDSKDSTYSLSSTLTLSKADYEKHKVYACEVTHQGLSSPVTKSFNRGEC
notes: common light chain 1-39; also called R6189; PD-L1x4-1BB REGN6189
B2: REGN6190 (bispecific antibody, human IgG4 S228P, kappa)
heavy 1: B1 heavy 1
heavy 2: EVQLVESGGGLVQPGGSLRLSCEASGFTFSSYEMNWVRQAPGKGLEWISHISSSGSSIYYADSVQGRFTISRDKAKNSLYLQMNSLRAEDTAVYYCTREGFEYGSSSGLKYYYYGLDVWGQGTTVTVSSASTKGPSVFPLAPCSRSTSESTAALGCLVKDYFPEPVTVSWNSGALTSGVHTFPAVLQSSGLYSLSSVVTVPSSSLGTKTYTCNVDHKPSNTKVDKRVESKYGPPCPPCPAPPVAGPSVFLFPPKPKDTLMISRTPEVTCVVVDVSQEDPEVQFNWYVDGVEVHNAKTKPREEQFNSTYRVVSVLTVLHQDWLNGKEYKCKVSNKGLPSSIEKTISKAKGQPREPQVYTLPPSQEEMTKNQVSLTCLVKGFYPSDIAVEWESNGQPENNYKTTPPVLDSDGSFFLYSRLTVDKSRWQEGNVFSCSVMHEALHNRFTQKSLSLSPGK
light: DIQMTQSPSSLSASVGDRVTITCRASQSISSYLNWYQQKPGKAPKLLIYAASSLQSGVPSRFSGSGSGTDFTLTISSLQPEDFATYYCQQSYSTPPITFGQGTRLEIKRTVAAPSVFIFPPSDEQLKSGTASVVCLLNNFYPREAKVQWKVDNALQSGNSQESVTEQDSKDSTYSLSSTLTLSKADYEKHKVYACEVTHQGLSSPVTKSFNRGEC
notes: common light chain 1-39; also called R6190; PD-L1x4-1BB REGN6190

How the values were obtained:
[1] = target: T1, human 4-1BB on cells (human, UniProt Q07011 24-255); experiment: cell-based or functional assay
T1 sequence (Q07011 24-255): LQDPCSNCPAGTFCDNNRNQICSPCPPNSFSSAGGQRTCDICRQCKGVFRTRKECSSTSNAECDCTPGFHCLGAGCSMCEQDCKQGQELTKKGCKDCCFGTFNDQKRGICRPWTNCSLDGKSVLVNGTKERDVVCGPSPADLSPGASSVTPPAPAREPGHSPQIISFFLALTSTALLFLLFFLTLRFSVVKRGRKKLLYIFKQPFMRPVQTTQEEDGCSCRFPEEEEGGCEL

[2] = target: T1, human 4-1BB on cells; experiment: cell-based or functional assay; remark: listed apart in the source
[3] = target: T1, human 4-1BB on cells; experiment: flow cytometry, Jurkat/NFkB-Luc/h41BB cells
Description: Binding was detected by using a labeled secondary antibody and measuring fluorescence on a flow cytometer.
Assay set up: OVCAR-3+/−PD-L1 cells were lifted with trypsin, washed and resuspended in stain buffer (2% FBS in PBS). OVCAR-3 and Jurkat/NFkB-Luc/h41BB cells were counted and added to wells at 200,000 cells/well. Cells, in wells of 96-well round bottom plates, were pelleted by centrifugation and resuspended in 150 ul stain buffer (PBS containing 2% FBS). Plates were once again centrifuged and subsequently 100 ul of stain buffer alone or stain buffer containing antibody, titrated from 200 nM to 12 pM in a 9-point 1:4 dose titration were added to cells. Cells and antibodies were incubated for 30 min on ice and then washed in stain buffer. Cells were resuspended in 2 μg/ml allophycocyanin (APC) conjugated goat-anti human secondary antibody. A secondary antibody alone control was included. Cells and secondary were incubated for 30 min on ice and then washed in stain buffer. After a subsequent wash with PBS (containing no FBS), cells were resuspended in viability dye (reconstituted in DMSO according to the manufacturer's protocol and diluted 1:1000 in PBS) and incubated for 20 min on ice. They were then washed with stain buffer and resuspended in 2% PFA for 30 min at 4 C. After washing they were filtered and analyzed by flow cytometry. EC₅₀ values of the antibodies were determined from a 4 parameter logistic equation over a 9-point dose response curve (including secondary only control) using GraphPad Prism software.

[4] = target: T2, human 4-1BB expressed with a C-terminal myc-myc-hexahistidine tag (h4-1BB.mmH) (human); experiment: blocking ELISA, 0.25 nM h4-1BB-mmh binding to coated 6His-Flag-h4-1BBL
T2 construct: also called hCD137 (4-1BB) mmH
T2 sequence (chain, as listed by the source limits assumed): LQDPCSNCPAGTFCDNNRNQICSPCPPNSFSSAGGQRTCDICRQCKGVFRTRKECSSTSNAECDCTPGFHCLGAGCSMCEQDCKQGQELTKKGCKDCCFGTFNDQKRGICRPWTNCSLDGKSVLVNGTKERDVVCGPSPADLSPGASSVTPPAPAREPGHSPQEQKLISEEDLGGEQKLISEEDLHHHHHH
Description: The 4-1BB blocking assay was performed similarly to the PD-L1 blocking assay. 6His-Flag-h4-1BBL protein ([…] in PBS) was coated onto a 96-well microtiter plate overnight at 4 °C. […] The plates were developed using TMB substrate solution (BD Biosciences) and the absorbance at 450 nm was measured on a SpectraMax I3x plate reader.
Binding data were analyzed using a sigmoidal (four-parameter logistic) dose-response model with GraphPad Prism™ software. […] The percent blocking of tested antibodies at the highest tested concentration of 100 nM was calculated based on the formula shown below: […]

[5] = target: T2, human 4-1BB expressed with a C-terminal …; experiment: SPR Biacore, 25 C, antibody captured via anti-hFc, h4-1BB.mmH as analyte
Description: The CM5 Biacore sensor surface was derivatized by amine coupling with a monoclonal mouse anti-human Fc antibody. All Biacore binding studies were performed in a buffer composed of 0.01M HEPES pH 7.4, 0.15M NaCl, 3 mM EDTA, 0.05% v/v Surfactant P20 (HBS-EP running buffer). […] Antibody-reagent association was monitored for 5 minutes while dissociation in HBS-EP running buffer was monitored for 10 minutes. At the end of each cycle, the antibody capture surface was regenerated using a 10 sec injection of 20 mM phosphoric acid. All binding kinetics experiments were performed at 25° C.
Data analysis: The specific SPR-Biacore sensorgrams were obtained by a double referencing procedure. The double referencing was performed by first subtracting the signal of each injection over a reference surface (anti-hFc or anti-mFc) from the signal over the experimental surface (anti-hFc-captured anti-PD-L1×4-1BB antibodies) thereby removing contributions from refractive index changes. In addition, running buffer injections were performed to allow subtraction of the signal changes resulting from the dissociation of captured antibodies or antigens from the coupled anti-hFc or anti-mFc surface. Kinetic association (kₐ) and dissociation (kd) rate constants were determined by fitting the real-time sensorgrams to a 1:1 binding model using Scrubber v2.0c curve fitting software. Binding dissociation equilibrium constants (KD) and dissociative half-lives (t½) were calculated from the kinetic rate constants as: […]

Binder | NFkB-luciferase EC50, Jurkat/NFkB-Luc/h41BB + HEK293/hCD20/hPSMA/hPD-L1 [1] [nM] | NFkB-luciferase MAX (RLU), Jurkat/NFkB-Luc/h41BB + HEK293/hCD20/hPSMA [1] [RLU] | NFkB-luciferase MAX (RLU), Jurkat/NFkB-Luc/h41BB + HEK293/hCD20/hPSMA/hPD-L1 [1] [RLU] | IL2 release EC50, human CD3+ T cells + HEK293/hCD20/hPSMA/hPD-L1 + CD20xCD3 [2] [nM] | IL2 release MAX, human CD3+ T cells + HEK293/hCD20/hPSMA + CD20xCD3 [2] [pg/mL] | IL2 release MAX, human CD3+ T cells + HEK293/hCD20/hPSMA, no CD20xCD3 [2] [pg/mL] | IL2 release MAX, human CD3+ T cells + HEK293/hCD20/hPSMA/hPD-L1 + CD20xCD3 [2] [pg/mL] | IL2 release MAX, human CD3+ T cells + HEK293/hCD20/hPSMA/hPD-L1, no CD20xCD3 [2] [pg/mL] | Fold change (max MFI over secondary antibody alone) [3] [fold] | Max [gMFI] [3] [gMFI] | % Blocking at 100 nM mAb [4] [%] | 270 nM h4-1BB-mmH Bind (RU) [5] [RU] | Kd [5] [nM] | koff [5] [s⁻¹] | kon [5] [M⁻¹ s⁻¹] | t½ [5] [s]
B1 | 7.03 | 175000 | 1.18e+06 | 1.09 | 8.7 | 10.1 | 83.1 | 10.1 | 23.8 | 54000 | 64 | 25.4 | 61.6 | 0.0315 | 511000 | 24
B2 | 4.48 | 120000 | 973000 | 0.663 | 9.6 | 8.9 | 52.5 | 8.9 | 36.2 | 82000 | 85 | 30.7 | 30.3 | 0.021 | 692000 | 30
